According to article PMC8405986:

Experiments:
[1] = molecular target: NS3-4A protease Q80K, single-chain proteolytic domain (NS4A21-32-GSGS-NS3 3-181) (hepatitis C virus)
[2] = molecular target: NS3-4A protease WT, single-chain proteolytic domain (NS4A21-32-GSGS-NS3 3-181) (hepatitis C virus)
[3] = molecular target: NS3-4A protease Q80K-A91S-S174N, single-chain proteolytic domain (NS4A21-32-GSGS-NS3 3-181) (hepatitis C virus)
[4] = molecular target: NS3-4A protease Q80K-A91T, single-chain proteolytic domain (NS4A21-32-GSGS-NS3 3-181) (hepatitis C virus)
[5] = molecular target: NS3-4A protease Q80K-A91S, single-chain proteolytic domain (NS4A21-32-GSGS-NS3 3-181) (hepatitis C virus)
[6] = molecular target: NS3-4A protease Q80K-S174N, single-chain proteolytic domain (NS4A21-32-GSGS-NS3 3-181) (hepatitis C virus)
[7] = molecular target: NS3-4A protease Q80K-A91T-S174N, single-chain proteolytic domain (NS4A21-32-GSGS-NS3 3-181) (hepatitis C virus)

Q: For “viral polyprotein substrate derived from the NS4A/4B cleavage site (SensoLyte 520 HCV; Anaspec) (peptide)”, which KM (μM) of cleavage of the NS4A/4B FRET peptide substrate by purified protease (FRET-based protease assay) [1] is on record?
A: 1.44 µM

Q: And the KM (μM) of cleavage of the NS4A/4B FRET peptide substrate by purified protease (FRET-based protease assay) [2]?
A: 2.71 µM

Q: And the KM (μM) of cleavage of the NS4A/4B FRET peptide substrate by purified protease (FRET-based protease assay) [3]?
A: 8.16 µM

Q: And the KM (μM) of cleavage of the NS4A/4B FRET peptide substrate by purified protease (FRET-based protease assay) [4]?
A: 0.48 µM

Q: And the KM (μM) of cleavage of the NS4A/4B FRET peptide substrate by purified protease (FRET-based protease assay) [5]?
A: 0.56 µM

Q: What about the KM (μM) of cleavage of the NS4A/4B FRET peptide substrate by purified protease (FRET-based protease assay) [6] of the same substance?
A: 0.14 µM

Q: What about the KM (μM) of cleavage of the NS4A/4B FRET peptide substrate by purified protease (FRET-based protease assay) [7] of the same substance?
A: 0.67 µM
